# From publication PMC9911869
# Target: recombinant pullulanase from Manihot esculenta Crantz (rMePUL), mature form without the transit peptide (Manihot esculenta Crantz (cassava))
# Test: SEC; purified rMePUL on an MAbPac SEC-1 column (4 x 300 mm), 25 mM phosphate buffer pH 6.8 with 300 mM NaCl, 0.2 mL/min, 30°C, A280; calibrated with Bio-Rad gel filtration standards; monomer and dimer peaks
substance,measurement,value
"recombinant pullulanase from Manihot esculenta Crantz (rMePUL), mature form without the transit peptide (enzyme)",stoichiometry N,2
